From publication PMC4655287, “Selection of Single-Stranded DNA Molecular Recognition Elements against Exotoxin A Using a Novel Decoy-SELEX Method and Sensitive Detection of Exotoxin A in Human Serum”

Target: Exotoxin A (Pseudomonas aeruginosa, UniProt P11439 26-638)
Assay: SPR; […]; 0-2 uM analyte, 1:1 kinetic model; SPR (Biacore X100): 100 mM NaCl, 20 mM Tris-HCl, 2 mM MgCl2 (pH not stated), room temperature, 5 uL/min
Conditions: protein: commercial; tags: none stated

Chain of Exotoxin A (P11439 26-638): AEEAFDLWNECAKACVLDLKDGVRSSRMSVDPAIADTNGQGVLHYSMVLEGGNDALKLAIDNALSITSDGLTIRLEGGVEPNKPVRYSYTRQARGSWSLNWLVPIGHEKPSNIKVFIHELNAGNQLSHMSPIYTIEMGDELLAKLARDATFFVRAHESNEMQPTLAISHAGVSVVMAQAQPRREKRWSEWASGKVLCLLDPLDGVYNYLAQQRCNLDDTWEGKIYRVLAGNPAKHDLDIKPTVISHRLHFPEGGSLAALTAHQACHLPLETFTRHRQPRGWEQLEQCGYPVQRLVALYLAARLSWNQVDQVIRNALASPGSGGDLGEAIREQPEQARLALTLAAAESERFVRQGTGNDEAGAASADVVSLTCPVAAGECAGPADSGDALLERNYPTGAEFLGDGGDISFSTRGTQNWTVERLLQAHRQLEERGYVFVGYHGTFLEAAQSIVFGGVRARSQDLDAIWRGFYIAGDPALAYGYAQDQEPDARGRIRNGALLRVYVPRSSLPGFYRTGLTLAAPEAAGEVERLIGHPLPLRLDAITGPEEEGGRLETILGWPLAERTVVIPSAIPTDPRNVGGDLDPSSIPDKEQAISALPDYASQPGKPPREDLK

B1: R14.33 (ssDNA)
DNA: TGTACCGTCTGAGCGATTCGTACCATAGGGTGCTTTTCAAGGCCACACGTTAGTGTAAGCCAGTCAGTGTTAAGGAGTGC
modifications: 5' amino-C6
Kd: 4.35 µM
